Target: ERK2 (UniProt P63086)
Test: steady-state kinetics, forward and reverse reaction
Details: reference: unphosphorylated Ets; sites T38

Ets-1 (Ets; residues 1–138) 1-138 (from UniProt P27577) p-Ets (ERK2-phosphorylated, Mono-Q purified)
other: Km: same; reference 18.0 ± 2.0

Reference: PMC2868174
